Publication PMC6747400, “Mismatch Recognition by Saccharomyces cerevisiae Msh2-Msh6: Role of Structure and Dynamics”

What was measured:
[1] = target: T1, Msh2;Msh6 (Saccharomyces cerevisiae;Saccharomyces …, UniProt P25847;Q03834 1-964;1-1242, |); assay: fluorescence anisotropy; Fluorescence/FRET: 10 mM sodium phosphate pH 7.5, 100 mM NaCl, 5 mM MgCl2, 10 C (10 nM DNA for anisotropy); EMSA: 20 mM Tris-Cl pH 7.5, 100 mM NaCl, 5 mM MgCl2, 2% ficoll, 4 C, 10 nM DNA; conditions: protein: recombinant;recombinant, tags: ;, copies: 1;1, blunt
T1 sequence (P25847 whole entry, chain 1 of 2): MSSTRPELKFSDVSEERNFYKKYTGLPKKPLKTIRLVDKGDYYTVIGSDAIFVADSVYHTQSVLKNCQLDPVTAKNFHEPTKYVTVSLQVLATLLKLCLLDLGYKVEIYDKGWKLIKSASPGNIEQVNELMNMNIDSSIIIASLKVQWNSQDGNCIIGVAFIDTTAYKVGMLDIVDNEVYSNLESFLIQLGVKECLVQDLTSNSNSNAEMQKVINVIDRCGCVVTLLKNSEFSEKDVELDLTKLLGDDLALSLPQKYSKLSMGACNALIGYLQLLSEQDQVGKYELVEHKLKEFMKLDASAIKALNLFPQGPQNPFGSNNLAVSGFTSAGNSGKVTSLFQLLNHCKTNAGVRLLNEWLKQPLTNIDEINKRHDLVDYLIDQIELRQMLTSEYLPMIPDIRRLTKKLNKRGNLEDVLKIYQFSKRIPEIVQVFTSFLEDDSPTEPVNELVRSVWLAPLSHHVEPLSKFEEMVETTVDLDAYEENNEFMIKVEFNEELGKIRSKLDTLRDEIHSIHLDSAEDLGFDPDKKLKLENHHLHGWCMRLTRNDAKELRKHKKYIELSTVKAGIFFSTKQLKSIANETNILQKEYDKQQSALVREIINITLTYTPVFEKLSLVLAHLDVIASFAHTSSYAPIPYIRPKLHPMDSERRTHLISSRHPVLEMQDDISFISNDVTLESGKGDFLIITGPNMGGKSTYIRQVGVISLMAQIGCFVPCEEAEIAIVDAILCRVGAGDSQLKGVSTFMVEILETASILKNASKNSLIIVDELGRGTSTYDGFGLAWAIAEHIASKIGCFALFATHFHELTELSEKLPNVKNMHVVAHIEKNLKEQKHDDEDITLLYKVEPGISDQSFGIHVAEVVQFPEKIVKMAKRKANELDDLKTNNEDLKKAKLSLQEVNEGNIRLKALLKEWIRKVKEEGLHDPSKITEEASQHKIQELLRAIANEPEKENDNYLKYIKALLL
T1 sequence (Q03834 whole entry, chain 2 of 2): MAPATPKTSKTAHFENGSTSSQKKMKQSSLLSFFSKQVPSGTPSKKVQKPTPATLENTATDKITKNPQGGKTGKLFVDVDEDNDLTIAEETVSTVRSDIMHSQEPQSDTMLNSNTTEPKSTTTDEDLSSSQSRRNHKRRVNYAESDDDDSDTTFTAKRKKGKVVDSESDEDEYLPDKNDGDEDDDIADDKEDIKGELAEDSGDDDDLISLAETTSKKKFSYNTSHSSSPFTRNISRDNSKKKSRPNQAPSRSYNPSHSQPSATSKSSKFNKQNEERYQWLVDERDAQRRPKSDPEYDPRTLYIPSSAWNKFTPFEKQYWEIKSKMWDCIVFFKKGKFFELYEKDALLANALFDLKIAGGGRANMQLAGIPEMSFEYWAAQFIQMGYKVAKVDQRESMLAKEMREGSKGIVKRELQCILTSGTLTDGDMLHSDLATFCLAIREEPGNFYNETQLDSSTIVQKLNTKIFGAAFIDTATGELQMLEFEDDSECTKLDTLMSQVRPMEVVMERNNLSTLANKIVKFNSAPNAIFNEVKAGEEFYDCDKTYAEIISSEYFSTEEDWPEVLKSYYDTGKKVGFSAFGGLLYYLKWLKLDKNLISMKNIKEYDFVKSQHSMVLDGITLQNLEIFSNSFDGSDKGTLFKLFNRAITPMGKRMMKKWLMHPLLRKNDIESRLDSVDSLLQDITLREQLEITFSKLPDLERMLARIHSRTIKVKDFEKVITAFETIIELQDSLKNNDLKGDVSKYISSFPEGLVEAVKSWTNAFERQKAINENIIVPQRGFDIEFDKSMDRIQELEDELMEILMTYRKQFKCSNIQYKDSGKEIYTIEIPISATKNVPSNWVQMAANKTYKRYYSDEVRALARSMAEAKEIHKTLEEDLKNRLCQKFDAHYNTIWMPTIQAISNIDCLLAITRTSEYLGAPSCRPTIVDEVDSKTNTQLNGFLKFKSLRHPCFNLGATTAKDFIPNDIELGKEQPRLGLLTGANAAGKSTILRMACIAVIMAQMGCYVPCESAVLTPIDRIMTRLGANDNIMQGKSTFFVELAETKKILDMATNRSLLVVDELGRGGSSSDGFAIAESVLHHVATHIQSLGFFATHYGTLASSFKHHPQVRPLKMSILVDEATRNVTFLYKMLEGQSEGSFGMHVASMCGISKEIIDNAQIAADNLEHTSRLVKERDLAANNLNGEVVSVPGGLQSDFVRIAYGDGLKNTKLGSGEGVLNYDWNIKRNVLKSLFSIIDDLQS

[2] = target: T1, Msh2;Msh6; assay: fluorescence anisotropy; text gives error 6.9; Fluorescence/FRET: 10 mM sodium phosphate pH 7.5, 100 mM NaCl, 5 mM MgCl2, 10 C (10 nM DNA for anisotropy); EMSA: 20 mM Tris-Cl pH 7.5, 100 mM NaCl, 5 mM MgCl2, 2% ficoll, 4 C, 10 nM DNA; conditions: protein: recombinant;recombinant; tags: ;; copies: 1;1; label: 6-MI internal; blunt, 6-MI:A mismatch
[3] = target: T1, Msh2;Msh6; assay: fluorescence intensity; Fluorescence/FRET: 10 mM sodium phosphate pH 7.5, 100 mM NaCl, 5 mM MgCl2, 10 C (10 nM DNA for anisotropy); EMSA: 20 mM Tris-Cl pH 7.5, 100 mM NaCl, 5 mM MgCl2, 2% ficoll, 4 C, 10 nM DNA; conditions: protein: recombinant;recombinant, tags: ;, copies: 1;1, label: 6-MI internal, blunt
[4] = target: T1, Msh2;Msh6; assay: fluorescence anisotropy; Figure S2 legend gives 92.1 ± 13.9; Fluorescence/FRET: 10 mM sodium phosphate pH 7.5, 100 mM NaCl, 5 mM MgCl2, 10 C (10 nM DNA for anisotropy); EMSA: 20 mM Tris-Cl pH 7.5, 100 mM NaCl, 5 mM MgCl2, 2% ficoll, 4 C, 10 nM DNA; conditions: protein: recombinant;recombinant; tags: ;; copies: 1;1; label: 5' Alexa Fluor 647 on strand 1; blunt homoduplex
[5] = target: T1, Msh2;Msh6; assay: fluorescence anisotropy; Table 1 prints this value in the intensity column of +T_6-MI; Fluorescence/FRET: 10 mM sodium phosphate pH 7.5, 100 mM NaCl, 5 mM MgCl2, 10 C (10 nM DNA for anisotropy); EMSA: 20 mM Tris-Cl pH 7.5, 100 mM NaCl, 5 mM MgCl2, 2% ficoll, 4 C, 10 nM DNA; conditions: protein: recombinant;recombinant; tags: ;; copies: 1;1; label: 5' Alexa Fluor 594 on strand 1; blunt, unpaired T14 in strand 1

B1: 6-MI:C (dsDNA)
DNA 1: TATGCAGTCACTATGAATCAACTACTTAGATGGT
DNA 2: ACCATCTAAGTAGTTGATTCATAGTGACTGCATA
modifications: 6-MI replaces G15 of strand 1 (F, written G)
Kd ([1]; label: 6-MI internal, 34 bp homoduplex): 122 ± 12.1 nM

B2: +T_6-MI (dsDNA)
DNA 1: TATGCAGTCACTATGAATCAACTACTTAGATGGT
DNA 2: ACCATCTAAGTAGTTGATTCTAGTGACTGCATA
modifications: 6-MI replaces G15 of strand 1 (F, written G)
Kd ([1]; label: 6-MI internal, unpaired T14 in strand 1 (34/33 nt)): 16 ± 2.9 nM

B3: G:G end-labeled (dsDNA)
DNA 1: TATGCAGTCACTATGAATCAACTACTTAGATGGT
DNA 2: ACCATCTAAGTAGTTGATTGATAGTGACTGCATA
modifications: 5' amino C6
Kd ([1]; label: Alexa Fluor 594 or 647, G15:G mismatch): 15.6 ± 3.4 nM

B4: G:T_AF594 (dsDNA)
DNA 1: TATGCAGTCACTATGAATCAACTACTTAGATGGT
DNA 2: ACCATCTAAGTAGTTGATTTATAGTGACTGCATA
modifications: 5' amino C6 on strand 1
Kd ([1]; label: 5' Alexa Fluor 594 on strand 1, G15:T mismatch): 13.3 ± 3.9 nM

B5: 6-MI:A (dsDNA)
DNA 1: TATGCAGTCACTATGAATCAACTACTTAGATGGT
DNA 2: ACCATCTAAGTAGTTGATTAATAGTGACTGCATA
modifications: 6-MI replaces G15 of strand 1 (F, written G)
Kd [2]: 25.8 ± 12.3 nM

B6: T:G_6-MI (dsDNA)
DNA 1: TATGCAGTCACTATGAATCAACTACTTAGATGGT
DNA 2: ACCATCTAAGTAGTTGATTCGTAGTGACTGCATA
modifications: 6-MI replaces G15 of strand 1 (F, written G)
Kd ([1]; label: 6-MI internal, T14:G mismatch): 25.9 ± 1.2 nM

B7: 6-MI:G (dsDNA)
DNA 1: TATGCAGTCACTATGAATCAACTACTTAGATGGT
DNA 2: ACCATCTAAGTAGTTGATTGATAGTGACTGCATA
modifications: 6-MI replaces G15 of strand 1 (F, written G)
Kd ([1]; label: 6-MI internal, 6-MI:G mismatch): 10.4 ± 5.8 nM

B8: 6-MI_A:G (dsDNA)
DNA 1: TATGCAGTCACTATGAATCAACTACTTAGATGGT
DNA 2: ACCATCTAAGTAGTTGATGCATAGTGACTGCATA
modifications: 6-MI replaces G15 of strand 1 (F, written G)
Kd ([3]; A16:G mismatch): 11.8 ± 2.8 nM
Kd ([1]; label: 6-MI internal, A16:G mismatch): 9 ± 2.8 nM

B9: G:C_AF647 (dsDNA)
DNA 1: TATGCAGTCACTATGAATCAACTACTTAGATGGT
DNA 2: ACCATCTAAGTAGTTGATTCATAGTGACTGCATA
modifications: 5' amino C6 on strand 1
Kd [4]: 106 ± 13.9 nM

B10: 6-MI:T (dsDNA)
DNA 1: TATGCAGTCACTATGAATCAACTACTTAGATGGT
DNA 2: ACCATCTAAGTAGTTGATTTATAGTGACTGCATA
modifications: 6-MI replaces G15 of strand 1 (F, written G)
Kd ([1]; label: 6-MI internal, 6-MI:T mismatch): 13.7 ± 3.4 nM

B11: 6-MI_A:A (dsDNA)
DNA 1: TATGCAGTCACTATGAATCAACTACTTAGATGGT
DNA 2: ACCATCTAAGTAGTTGATACATAGTGACTGCATA
modifications: 6-MI replaces G15 of strand 1 (F, written G)
Kd ([3]; A16:A mismatch): 19.1 ± 3.5 nM
Kd ([1]; label: 6-MI internal, A16:A mismatch): 7.9 ± 2 nM

B12: A:A_6-MI (dsDNA)
DNA 1: TATGCAGTCACTATGAATCAACTACATAGATGGT
DNA 2: ACCATCTAAGTAGTTGATTCATAGTGACTGCATA
modifications: 6-MI replaces G10 of strand 2 (F, written G)
Kd ([3]; A26:A mismatch): 10.4 ± 2.4 nM
Kd ([1]; label: 6-MI internal, A26:A mismatch): 11.3 ± 3.1 nM

B13: T:T_6-MI (dsDNA)
DNA 1: TATGCAGTCACTATGAATCAACTACTTAGATGGT
DNA 2: ACCATCTAAGTAGTTGATTCTTAGTGACTGCATA
modifications: 6-MI replaces G15 of strand 1 (F, written G)
Kd ([1]; label: 6-MI internal, T14:T mismatch): 77.5 ± 20 nM

B14: 6-MI_A:C (dsDNA)
DNA 1: TATGCAGTCACTATGAATCAACTACTTAGATGGT
DNA 2: ACCATCTAAGTAGTTGATCCATAGTGACTGCATA
modifications: 6-MI replaces G15 of strand 1 (F, written G)
Kd ([3]; A16:C mismatch): 17.1 ± 4.3 nM
Kd ([1]; label: 6-MI internal, A16:C mismatch): 13.3 ± 3.6 nM

B15: +T_AF594 (dsDNA)
DNA 1: TATGCAGTCACTATGAATCAACTACTTAGATGGT
DNA 2: ACCATCTAAGTAGTTGATTCTAGTGACTGCATA
modifications: 5' amino C6 on strand 1
Kd [5]: 18.1 ± 2.6 nM

B16: T:C_6-MI (dsDNA)
DNA 1: TATGCAGTCACTATGAATCAACTACTTAGATGGT
DNA 2: ACCATCTAAGTAGTTGATTCCTAGTGACTGCATA
modifications: 6-MI replaces G15 of strand 1 (F, written G)
Kd ([1]; label: 6-MI internal, T14:C mismatch): 113 ± 18.7 nM
